PMC4251946, “The mechanism of H171T resistance reveals the importance of Nδ-protonated His171 for the binding of allosteric inhibitor BI-D to HIV-1 integrase” (Retrovirology, 2014)

Experiments:
[1] = molecular target: H171T HIV-1 integrase (IN) (HIV-1); assay: AlphaScreen or HTRF
[2] = molecular target: H171T HIV-1 integrase (IN) (HIV-1); assay: SEC; Superdex 200 10/300 GL; 20 mM HEPES pH 6.8, 750 mM NaCl, 10 mM MgSO4, 0.2 mM EDTA, 5 mM BME, 5% glycerol, 200 μM ZnCl2; 4°C; tetramer and monomer peaks
[3] = molecular target: T1, LEDGF/p75 (UniProt O75475 1-530); assay: AlphaScreen or HTRF; settings: both partners purified
T1 construct: source: E. coli, purified as described previously [37]; not shown: FLAG, C-terminal, kept

In the case of “LEDGF/p75 (from UniProt O75475 1-530) (natural protein)”, the Kd [1] is reported as 10.5 nM.

In the case of H171T HIV-1 integrase (IN) (enzyme), the stoichiometry N [2] is reported as 4.

B1: WT HIV-1 integrase (IN) (enzyme)
chain: FLDGIDKAQEEHEKYHSNWRAMASDFNLPPVVAKEIVASCDKCQLKGEAMHGQVDCSPGIWQLDCTHLEGKVILVAVHVASGYIEAEVIPAETGQETAYFLLKLAGRWPVKTVHTDNGSNFTSTTVKAACWWAGIKQEFGIPYNPQSQGVIESMNKELKKIIGQVRDQAEHLKTAVQMAVFIHNFKRKGGIGGYSAGERIVDIIATDIQTKELQKQITKIQNFRVYYRDSRDPVWKGPAKLLWKGEGAVVIQDNSDIKVVPRRKAKIIRDYGKQMAGDDCVASRQDED
notes: also called WT IN; source: E. coli, purified as described previously [37]; not shown: 6xHis, N-terminal, kept
For B1, the Kd [3] was 3.3 ± 0.3 nM.
